According to PMC11256085:

Molecular target: EnfB, ThiF-like adenylyltransferase (TLAT) (Enterococcus faecium strain FDAARGOS_397 (methods); E. faecalis FDAARGOS_397 (results))

EnfA with Trp18 substituted by Ala (peptide)
conversion of the EnfA variant by EnfB (in vitro enzyme assay, LC-MS): 2.1%
